# Reference: US8580932B2, “Method of thermostabilization of a protein and/or stabilization towards organic solvents” (Masarykova Univerzita, priority 2011, dated 2013)
# B1: DhaA: haloalkane dehalogenase DhaA from Rhodococcus rhodochrous NCIMB13064 (protein, UniProt P0A3G2 1-293, looked up)
# Haloalkane dehalogenase: MSEIGTGFPFDPHYVEVLGERMHYVDVGPRDGTPVLFLHGNPTSSYLWRNIIPHVAPSHRCIAPDLIGMGKSDKPDLDYFFDDHVRYLDAFIEALGLEEVVLVIHDWGSALGFHWAKRNPERVKGIACMEFIRPIPTWDEWPEFARETFQAFRTADVGRELIIDQNAFIEGALPKCVVRPLTEVEMDHYREPFLKPVDREPLWRFPNELPIAGEPANIVALVEAYMNWLHQSPVPKLLFWGTPGVLIPPAEAARLAESLPNCKTVDIGPGLHYLQEDNPDLIGSEIARWLPAL
# B2: L177P: LinB variant in the position 177 (protein, UniProt D4Z2G1 2-296, looked up, variant L177P)
# Haloalkane dehalogenase: SLGAKPFGEKKFIEIKGRRMAYIDEGTGDPILFQHGNPTSSYLWRNIMPHCAGLGRLIACDLIGMGDSDKLDPSGPERYAYAEHRDYLDALWEALDLGDRVVLVVHDWGSALGFDWARRHRERVQGIAYMEAIAMPIEWADFPEQDRDLFQAFRSQAGEELVLQDNVFVEQVLPGPILRPLSEAEMAAYREPFLAAGEARRPTLSWPRQIPIAGTPADVVAIARDYAGWLSESPIPKLFINAEPGALTTGRMRDFCRTWPNQTEITVAGAHFIQEDSPDEIGAAIAAFVRRLRPA
# B3: L177H: LinB variant in the position 177 (protein, UniProt D4Z2G1 2-296, looked up, variant L177H)
# Haloalkane dehalogenase: SLGAKPFGEKKFIEIKGRRMAYIDEGTGDPILFQHGNPTSSYLWRNIMPHCAGLGRLIACDLIGMGDSDKLDPSGPERYAYAEHRDYLDALWEALDLGDRVVLVVHDWGSALGFDWARRHRERVQGIAYMEAIAMPIEWADFPEQDRDLFQAFRSQAGEELVLQDNVFVEQVLPGHILRPLSEAEMAAYREPFLAAGEARRPTLSWPRQIPIAGTPADVVAIARDYAGWLSESPIPKLFINAEPGALTTGRMRDFCRTWPNQTEITVAGAHFIQEDSPDEIGAAIAAFVRRLRPA
# B4: L177K: LinB variant in the position 177 (protein, UniProt D4Z2G1 2-296, looked up, variant L177K)
# Haloalkane dehalogenase: SLGAKPFGEKKFIEIKGRRMAYIDEGTGDPILFQHGNPTSSYLWRNIMPHCAGLGRLIACDLIGMGDSDKLDPSGPERYAYAEHRDYLDALWEALDLGDRVVLVVHDWGSALGFDWARRHRERVQGIAYMEAIAMPIEWADFPEQDRDLFQAFRSQAGEELVLQDNVFVEQVLPGKILRPLSEAEMAAYREPFLAAGEARRPTLSWPRQIPIAGTPADVVAIARDYAGWLSESPIPKLFINAEPGALTTGRMRDFCRTWPNQTEITVAGAHFIQEDSPDEIGAAIAAFVRRLRPA
# B5: L177Q: LinB variant in the position 177 (protein, UniProt D4Z2G1 2-296, looked up, variant L177Q)
# Haloalkane dehalogenase: SLGAKPFGEKKFIEIKGRRMAYIDEGTGDPILFQHGNPTSSYLWRNIMPHCAGLGRLIACDLIGMGDSDKLDPSGPERYAYAEHRDYLDALWEALDLGDRVVLVVHDWGSALGFDWARRHRERVQGIAYMEAIAMPIEWADFPEQDRDLFQAFRSQAGEELVLQDNVFVEQVLPGQILRPLSEAEMAAYREPFLAAGEARRPTLSWPRQIPIAGTPADVVAIARDYAGWLSESPIPKLFINAEPGALTTGRMRDFCRTWPNQTEITVAGAHFIQEDSPDEIGAAIAAFVRRLRPA
# B6: L177M: LinB variant in the position 177 (protein, UniProt D4Z2G1 2-296, looked up, variant L177M)
# Haloalkane dehalogenase: SLGAKPFGEKKFIEIKGRRMAYIDEGTGDPILFQHGNPTSSYLWRNIMPHCAGLGRLIACDLIGMGDSDKLDPSGPERYAYAEHRDYLDALWEALDLGDRVVLVVHDWGSALGFDWARRHRERVQGIAYMEAIAMPIEWADFPEQDRDLFQAFRSQAGEELVLQDNVFVEQVLPGMILRPLSEAEMAAYREPFLAAGEARRPTLSWPRQIPIAGTPADVVAIARDYAGWLSESPIPKLFINAEPGALTTGRMRDFCRTWPNQTEITVAGAHFIQEDSPDEIGAAIAAFVRRLRPA
# How the values were obtained:
# [1] = Kinetic half-life assay of DhaA variants in 40% (v/v) DMSO; format: biochemical, Rhodococcus rhodochrous NCIMB 13064; conditions: 60 mM glycine buffer (pH 8.6), 37° C.
# [2] = Haloalkane dehalogenase activity assay in the presence of organic solvents; format: biochemical; conditions: 100 mM glycine buffer (pH 8.6), 37° C., 1-iodohexane (FIG. 12)
# Experimental: Haloalkane dehalogenase activity was assayed at 37° C. by a previously described method (Iwasaki, I., Utsumi, S., and Ozawa, T. 1952: New colorimetric determination of chloride using mercuric thiocyanate and ferric ion. Bulletin of the Chemical Society of Japan 25: 226-226). The released halide ions were analysed spectrophotometrically at 460 nm after a reaction with mercuric thiocyanate and ferric ammonium sulphate. The reaction mixture was composed of 100 mM glycine buffer (pH 8.6), 2 μl of substrate 1-iodohexane and appropriate amount of organic solvent. Solvent concentration was increased until the enzyme activity dropped below fifty per cent. The reaction was initiated by the addition of enzyme in a final concentration of 0.15 μM. The reaction was monitored by withdrawing samples at periodical intervals from the reaction mixture. The samples were immediately mixed with 35% nitric acid to terminate the reaction. Dehalogenation activity was quantified as a rate of product formation in time. Each activity was measured in 3-5 independent replicates and expressed as mean values of relative activity, represented percentage of activity in pure buffer.
# [3] = Steady-state kinetics of haloalkane dehalogenases by isothermal titration calorimetry; format: biochemical; conditions: pH 8.6, 25° C.; for ar (relative activity): percentage of specific activity in glycine buffer
# Experimental: Substrate to product conversion by the action of enzymes was carried out using VP-ITC isothermal titration microcalorimeter (MicroCal), by single injection method. The substrate 1-iodohexane was dissolved in 100 mM glycine buffer (pH 8.6) containing appropriate volume of organic solvent and equilibrated at 25° C. in the sample cell (1.4 ml). The reaction was initiated by injecting of 10 μl of 1 mg/ml enzyme solution dialyzed overnight against the same solution as used for dissolving of the substrate. The heat flow (μcal s^−1) was recorded as a function of time. The reaction rate was calculated according to the equation:
# [formula] where V is the volume of the sample cell, [S] is substrate concentration and ΔH is the enthalpy of the conversion of substrate to product and was determined experimentally by titration of the substrate into the sample cell containing the enzyme. The evaluated rate of substrate depletion (−d[S]/dt), and corresponding substrate concentration were fitted by nonlinear regression to kinetic models by using Origin 6.1 software (OriginLab, Massachusetts, USA). Results
# [4] = 12 different substrates; cited from earlier work
# [5] = format: physicochemical, Sphingobium japonicum UT26; conditions: for ΔTm: compared to the wild type LinB; for Tm: ellipticity at 222 nm, 20 to 80° C., 1° C./min, 50 mM potassium phosphate buffer (pH 7.5)
# Experimental: Circular dichroism spectra were recorded at 20° C. using a Jasco J-810 spectrometer (Jasco, Tokyo, Japan) coupled with Peltier temperature controller. Data were collected from 185 to 260 nm, at 100 nm/min, 1 s response time and 2 nm bandwidth using a 0.1 cm quartz cuvette containing the enzyme variant in 50 mM potassium phosphate buffer (pH 7.5). Each spectrum shown is the average of ten individual scans and was corrected for absorbance caused by the buffer. CD data were expressed in terms of the mean residue ellipticity (ΘMRE) using the equation: […]
# Thermal unfolding of LinB enzyme variants was followed by monitoring the ellipticity at 222 nm over the temperature range of 20 to 80° C., with a resolution 0.1° C., at a heating rate 1° C./min. Recorded thermal denaturation curves were roughly normalized to represent signal changes between approximately 1 and 0 and fitted to sigmoidal curves using software Origin 6.1 (OriginLab, Massachusetts, USA). The melting temperatures (Tm) were evaluated as a midpoint of the normalized thermal transition.
# [6] = formamide 5% (v/v), 1-iodohexane
molecule,measurement,setting,value
B1,deactivation in the presence of DMSO,[1],proceeded rapidly
same,Specific activity in glycine buffer,[2],0.0355 μmol s^−1 mg^−1 of enzyme
same,K0.5 (concentration of substrate at half maximal velocity),[3]; [6],4.2 µM
same,Ksi (substrate inhibition constant),[3]; [6],0.6 mM
same,nH (Hill coefficient),[3]; [6],2.0
same,ar (relative activity),[3]; formamide 5% (v/v),130%
same,ar (relative activity),[3]; glycine buffer (reference),100%
same,K0.5 (concentration of substrate at half maximal velocity),"[3]; glycine buffer, 1-iodohexane",8.5 µM
same,Ksi (substrate inhibition constant),"[3]; glycine buffer, 1-iodohexane",1.1 mM
same,kcat,"[3]; glycine buffer, 1-iodohexane",0.9 s⁻¹
same,nH (Hill coefficient),"[3]; glycine buffer, 1-iodohexane",2.0
B2,activity with tested substrates,[4],did not show activity with any of tested substrates
B3,ΔTm,[5],0.8 °C
same,Tm,[5],48.85 ± 0.28 °C
B4,thermal stability compared to the wild type enzyme,[5],improvement in thermal stability
same,ΔTm,[5],3.0 °C
same,Tm,[5],51.01 ± 0.54 °C
B5,ΔTm,[5],0.0 °C
same,Tm,[5],48.08 ± 0.17 °C
B6,ΔTm,[5],−0.3 °C
same,Tm,[5],47.78 ± 0.17 °C
